Laboratory results taken from US12072338B2, “Pharmaceutical peptides for the treatment of inflammatory diseases” (PROTAGONISTS LTD., priority 2007, dated 2024).

Assays:
RANTES = target: T1, RANTES (Homo sapiens, UniProt P13501); test: Micro-array analysis of chemokine binding peptides: RANTES
T1 construct: purchased 300-06
T1 sequence (P13501 24-91): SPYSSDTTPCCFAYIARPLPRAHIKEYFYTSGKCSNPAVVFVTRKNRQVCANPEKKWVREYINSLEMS
In short: (§1)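 Chemokines were printed at 25 and 50 μg/ml (final, in print reagent) on protein microarray slides, blocked, then exposed to recombinant peptide-displaying phage at 10^7 pfu/μl for 1 h at RT. Bound phage was detected with mouse anti-M13 mAb and Cy3 goat anti-mouse IgG; values are relative Cy3 fluorescence.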

Eotaxin 2 = target: T2, Eotaxin 2 (Homo sapiens, UniProt O00175); test: Micro-array analysis of chemokine binding peptides: Eotaxin 2
T2 construct: purchased 300-33
T2 sequence (O00175 27-119): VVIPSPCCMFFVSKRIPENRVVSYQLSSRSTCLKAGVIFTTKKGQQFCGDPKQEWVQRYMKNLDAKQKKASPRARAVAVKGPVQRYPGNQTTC
Description: (§2) (1) Printing: Chemokine (CK) solution (in water) was serially diluted with Print Reagent (GenTel BioSurfaces USA) to final concentrations of 50 μg and 25 μg/ml. BSA/BSA-Biotin control solutions (in water) were diluted with Print Reagent to 100 μg/ml. Amplified stock of M13 phage control (M13KEgIII Cloning Vector, New England Biolabs, Cat.No.E8101S) was stored in Tris Buffered Saline (TBS; pH7.5, 4° C.) and diluted with Print Reagent to the working titre (10^8 pfu/μl). An automated spotting robot (16 pin print tool, 0.4 mm head; BioRobotics, UK) was used to print the CK/BSA control/M13 control, 5 repeats per sample (CK 25 μg/ml and 50 μg/ml; BSA 100 μg/ml; M13 20 μl), on PATH Protein Microarray Slides (GenTel, Prod.No. 2-1005/-1025) at […], and 50-70% relative humidity. Printed micro-array slides were stored at Room Temperature (RT) or 4° C. for at least 24 h before use.
(§3) (2) Blocking: Block Buffer (500 μl/partition; PATHblock, GenTel, Prod.No. 2-1014) was applied to the slide for 1 hour at room temp (RT). After removal of Block Buffer, the slide was air dried for 25 minutes;
(§4) (3) Phage Presented Peptide Binding: Amplified recombinant phage stock was stored in TBS and diluted with Wash Buffer to working titer (10^7 pfu/μl). Recombinant phage suspension (300 μl) was applied per partition and incubated at RT for 1 hour with gentle agitation.
(§5) (4) First Washing: The slides were washed twice with Wash Buffer 300 μl/partition).
(5) Primary Antibody (Ab) Labeling: The slides were incubated with the Primary Ab (1 mg/ml diluted ×2500 (Wash Reagent), 300 μl; Mouse Anti-M13 monoclonal Ab; Amersham Biosciences, UK; Product Code 27-9420-01) for 45 minutes at RT.
(6) Second Washing: The slides were washed twice with Wash Buffer (300 μl/partition).
(7) Secondary Ab Labeling: The slides were incubated with Secondary Ab (1.5 mg/ml diluted ×5000 (Wash Reagent), 300 μl; Cy3-conjugated AffiniPure Goat Anti-Mouse IgG; Jackson ImmunoReserch Labs, USA; Product Code 115-165-062).
(8) Third Washing: The slides were washed twice with Wash Buffer (300 μl/partition).
(9) Rinse: the slides were rinsed twice with Rinse Buffer (PATHrinse, GenTel, Prod.No. 2-1018) then dried well.
(10) Scanning: The peptide-bound, labeled slide was scanned (Laser Intensity 80%, Gain 80%, Resolution 10 μm) with a ScanArray Life Scanner (Packard BioChip Technologies, USA).
(§6) (11) Analysis: Quantitative analysis of micro-array was performed by the SpotReader program of Niles Scientific (USA) and presented as Relative Fluorescence (RF) as a function of CK concentration. Micro-array readout (Cy3 fluorescence) was quantified to determine the relative binding affinities of a CBP for the CKs and by inference, the specificity of the CBP for binding to a CK.

SDF1-α = target: T3, SDF1-α (Homo sapiens, UniProt P48061); test: Micro-array analysis of chemokine binding peptides: SDF1-α
T3 construct: purchased 300-28a
T3 sequence (P48061 22-89 limits assumed): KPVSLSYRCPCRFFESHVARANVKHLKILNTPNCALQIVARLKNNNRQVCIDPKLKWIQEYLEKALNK
In short: as §1

C-TAC = target: T4, C-TAC (Homo sapiens, UniProt Q9Y4X3); test: Micro-array analysis of chemokine binding peptides: C-TAC
T4 construct: purchased 300-54
T4 sequence (Q9Y4X3 25-112): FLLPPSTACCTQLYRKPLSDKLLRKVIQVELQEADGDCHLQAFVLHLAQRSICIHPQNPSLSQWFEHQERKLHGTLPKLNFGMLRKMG
Description: as §2, §3, §4, §5
(5) Primary Antibody (Ab) Labeling: The slides were incubated with the Primary Ab (1 mg/ml diluted ×2500 (Wash Reagent), 300 μl; Mouse Anti-M13 monoclonal Ab; Amersham Biosciences, UK; Product Code 27-9420-01) for 45 minutes at RT. […]
as §6

[1] = tested on: Adjuvant-Induced Arthritis (AIA) rats; test: Adjuvant Induced Arthritis (AIA) rat model, Clinical Score; type: in vivo; conditions: for most efficacious of the three doses: 2.5 μg, 25 μg and 250 μg IP on days 7-18; for day of maximal anti-inflammatory effect / maximal anti-inflammatory effect: 25 μg IP on days 7-18
Description: Peptides were tested in a rat model of AIA for their anti-inflammatory effects.
Disease Induction: AIA was induced in female Lewis rats aged 7-8 weeks by injection of heat-killed Mycobacerioum tuberculosis (Mt strain H37Ra, Difco Laboratories, USA) dispersed in incomplete Freund's adjuvant to a final concentration of 10 mg/ml (100 μl) at the base of the tail on day 0.
Measurement: Clinical Score (CS, 0-4) for each limb based on (a) joint inflammation, (b) redness, (c) deformity.
Efficacy Protocol 1 (5 rats per group). Peptide/control compound was injected intra-peritoneally (IP, 200 μl) on days 7-11 and 14-18.
Rats were sacrificed (CO2 inhalation) on day 43.
Efficacy Protocol 2 (8 rats per group). Group 1: peptide/PBS was injected intra-peritoneally (IP, 200 μl) on days 7-18; Group 2: PBS was injected IP on days 7-18; Group 3: Dexamethasone (Dexa) was injected IP on days 11 (Clinical Score (CS)1) and 13. Rats were sacrificed on day 43.
Combination Efficacy Protocol 1 (8 rats per group). Group 1: peptide injected IP on days 7-18; Group 2: PBS injected IP on days 7-18; Group 3: Dexa injected IP on day 11 (CS 1) and day 13; Group 4: Dexa injected IP on days 11 and 13 then peptide injected on days 14-22; Group 5: Dexa injected IP on days 11 and 13 then PBS injected on days 14-22.
(§7) Combination Efficacy Protocol 2 (8 rats per group). Group 1: peptide injected IP on days 7-18; Group 2: PBS injected IP on days 7-18; Group 3: Dexa injected IP on day 11 (CS 1) and day 13 then PBS on days 14-22; Group 4: PBS injected IP on days 7-10,12,14; Dexa injected on days 11, 13. Peptide injected on days 15-19.
as §7, with “Protocol 3” for “Protocol 2”, “4: peptide” for “4: PBS”
Control Reagents for Adjuvant Induced Arthritis: Anti-Inflammatory Control: Dexamethasone Sodium Phosphate (Dexacort Forte, Teva) was dissolved in Phosphate Buffer Saline (PBS, GIBCO) to a final concentration of 1 mg/ml and injected in 200 μl (200 μg).
Negative Control: Phosphate Buffer Saline (PBS).

[2] = limit = start of the upper 75% of that peptide's response range

| Sequence | binding to RANTES with relatively high affinity (Relative Fluorescence Units) (RANTES; [2]) | binding to Eotaxin 2 with relatively high affinity (Relative Fluorescence Units) (Eotaxin 2; [2]) | binding to SDF1-α, stated in words (SDF1-α) | binding to C-TAC, stated in words (C-TAC) | binding to Eotaxin 2, stated in words (Eotaxin 2) | most efficacious of the three doses [1] [µg] | day of maximal anti-inflammatory effect [1] [days] | maximal anti-inflammatory effect [1] [%] | binding to RANTES, stated in words (RANTES) |
| --- | --- | --- | --- | --- | --- | --- | --- | --- | --- |
| DYDYGAPC [Ph-p30] | > 15,000 RFU | > 15,000 RFU | bound | bound |  |  |  |  |  |
| WVFGAAMCK [Ph-p8.8] |  |  | bound | bound | bound | 25 | 18 | 20 |  |
| WVFGNAMCK [P8] |  |  |  |  |  | 25 | ~17 | 17 | bound specifically and differentially |
